Test results taken from the supplement of paper PMC7125110.
± gives the standard error. For part of these data: Variants at the floor of the assay were thinned out.

B1: glmS ribozyme (parent)
chain: AUAAAAGCGCCAGAACUACAGAAAUGUAGUUGACGAGGAGGAGGUUUAUCGAAUUUUCGGCGGAUGCCUCCAAA

Tests used:
Settings in all cases: with glucosamine-6-phosphate
glucosamine-6-phosphate [1] = variants of: B1; test: kcat; higher = faster cleavage; RNA array
Method in brief: (§1)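 Tiles bearing barcoded ribozyme variants, transcribed in situ by E. coli RNA polymerase on sequenced MiSeq chips, were imaged over ~14 h at 37 °C using a hybridised Cy3 probe. Glucosamine-6-phosphate was supplied at 40 μM to 10 mM in HEPES/KCl/Mg(OAc)2 buffer. kobs came from one- or two-exponential decay fits to normalised per-tile medians, and weighted Michaelis–Menten fits then provided kcat and KM.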

glucosamine-6-phosphate [2] = variants of: B1; test: KM; higher = weaker cofactor use; RNA array
Method in brief: as §1

glucosamine-6-phosphate [3] = variants of: B1; test: self-cleavage kobs at 40 uM GlcN6P; higher = faster cleavage; RNA array
Method in brief: as §1

glucosamine-6-phosphate [4] = variants of: B1; test: self-cleavage kobs at 160 uM GlcN6P; higher = faster cleavage; RNA array
Method in brief: as §1

glucosamine-6-phosphate [5] = variants of: B1; test: self-cleavage kobs at 640 uM GlcN6P; higher = faster cleavage; RNA array
Method in brief: as §1

glucosamine-6-phosphate [6] = variants of: B1; test: self-cleavage kobs at 2500 uM GlcN6P; higher = faster cleavage; RNA array
Method in brief: as §1

glucosamine-6-phosphate [7] = variants of: B1; test: self-cleavage kobs at 10000 uM GlcN6P; higher = faster cleavage; RNA array
Method in brief: as §1

Row | Variant | kcat (glucosamine-6-phosphate [1]) [s⁻¹] | KM (glucosamine-6-phosphate [2]) [µM] | self-cleavage kobs at 40 uM GlcN6P (glucosamine-6-phosphate [3]) [s⁻¹] | self-cleavage kobs at 160 uM GlcN6P (glucosamine-6-phosphate [4]) [s⁻¹] | self-cleavage kobs at 640 uM GlcN6P (glucosamine-6-phosphate [5]) [s⁻¹] | self-cleavage kobs at 2500 uM GlcN6P (glucosamine-6-phosphate [6]) [s⁻¹] | self-cleavage kobs at 10000 uM GlcN6P (glucosamine-6-phosphate [7]) [s⁻¹]
1 | U47A U65G | 0.00507 ± 0.0003 | 3540 ± 320 | 5.62e-05 ± 9.4e-06 | 0.000236 ± 6.6e-05 | 0.000735 ± 0.00012 | 0.00229 ± 0.00035 | 0.00369 ± 0.00037
2 | A33C G66A | 0.000291 ± 4.1e-05 | 2470 ± 580 |  |  | 6.35e-05 ± 9.2e-06 | 0.00013 ± 2.3e-05 | 0.000257 ± 4.6e-05
3 | A39C U47G | 0.00107 ± 0.00043 |  |  |  | 0.000286 ± 5.5e-05 | 0.000425 ± 0.0001 | 0.00109 ± 0.0002
4 | A48U U65G | 0.000116 ± 1e-05 | 1390 ± 430 | < 1e-05 |  | 3.11e-05 ± 9.7e-06 | 8.19e-05 ± 1e-05 | 9.9e-05 ± 9.7e-06
5 | U45A C71U | 0.0639 ± 0.022 | 2060 ± 810 | 0.00126 ± 0.00019 | 0.00507 ± 0.00093 | 0.012 ± 0.0029 |  | 0.0584 ± 0.019
6 | A12G U57C | 1.17e-05 ± 1.7e-06 |  | < 1e-05 |  |  |  | 
7 | G41A A52G | 8.32e-05 ± 1.6e-05 |  |  |  |  | 7.3e-05 ± 1.3e-05 | 6.83e-05 ± 1.3e-05
8 | A12C G13U | 0.000279 ± 2.1e-05 | 6200 ± 850 |  |  | 2.43e-05 ± 6.8e-06 | 8.18e-05 ± 1e-05 | 0.000172 ± 1.6e-05
9 | U45A C58U | 0.000219 ± 4.8e-05 | 4210 ± 1900 | < 1e-05 |  |  | 9.07e-05 ± 1.6e-05 | 0.000149 ± 2.4e-05
10 | U30A G41U | 0.000138 ± 2.1e-05 | 608 ± 300 |  |  | 6.73e-05 ± 9.9e-06 | 0.000147 ± 1.8e-05 | 0.000117 ± 1.4e-05
11 | A33U G41U | 2.33e-05 ± 1.9e-06 |  | < 1e-05 | < 1e-05 |  | 2.26e-05 ± 8e-06 | 2.14e-05 ± 6.8e-06
12 | A14U U47C | 0.000442 ± 6.2e-05 | 1430 ± 360 |  | 4.9e-05 ± 8.6e-06 | 0.000138 ± 1.3e-05 | 0.000238 ± 3.2e-05 | 0.000442 ± 5.2e-05
13 | G32C U47G | 1.21e-05 ± 1.1e-07 | 403 ± 39 |  |  |  |  | 
14 | G63A C71A | < 1e-05 |  |  |  |  |  | 
15 | G41C U46A | 0.00012 ± 1.2e-05 | 3110 ± 830 |  |  |  | 5.8e-05 ± 1.3e-05 | 9.03e-05 ± 1.3e-05
16 | A52U U69C | 0.000239 ± 2.7e-05 | 1990 ± 540 |  |  | 5.38e-05 ± 2.2e-05 | 0.000152 ± 3.9e-05 | 0.000191 ± 4.2e-05
17 | G32A G41U | 0.000608 ± 0.00022 |  |  |  | 5.48e-05 ± 9e-06 | 0.000125 ± 2e-05 | 0.00037 ± 5.5e-05

Row | Variant | kcat (glucosamine-6-phosphate [1]) [s⁻¹] | KM (glucosamine-6-phosphate [2]) [µM] | self-cleavage kobs at 40 uM GlcN6P (glucosamine-6-phosphate [3]) [s⁻¹] | self-cleavage kobs at 160 uM GlcN6P (glucosamine-6-phosphate [4]) [s⁻¹] | self-cleavage kobs at 640 uM GlcN6P (glucosamine-6-phosphate [5]) [s⁻¹] | self-cleavage kobs at 2500 uM GlcN6P (glucosamine-6-phosphate [6]) [s⁻¹] | self-cleavage kobs at 10000 uM GlcN6P (glucosamine-6-phosphate [7]) [s⁻¹]
18 | U31A A39G | 0.0529 ± 0.014 | 4340 ± 1300 | 0.000491 ± 7.7e-05 | 0.00202 ± 0.00038 | 0.00495 ± 0.0018 | 0.0245 ± 0.0078 | 0.0363 ± 0.0095
19 | G32A U49G | 5.97e-05 ± 1.4e-06 | 741 ± 85 | < 1e-05 |  | 2.83e-05 ± 1.2e-05 | 4.58e-05 ± 1.1e-05 | 5.56e-05 ± 8.3e-06
20 | G43A U54G | 0.000123 ± 6e-06 | 2490 ± 310 |  |  |  | 6.39e-05 ± 1.5e-05 | 9.76e-05 ± 1.9e-05
21 | A39C G59A | < 1e-05 |  | < 1e-05 | < 1e-05 | < 1e-05 |  | 
22 | C16U A64U | 9.47e-05 ± 1.3e-05 |  |  |  |  | 7.64e-05 ± 1.2e-05 | 8e-05 ± 6.6e-06
23 | U47C C70A | 0.000334 ± 9.1e-05 |  |  |  | 0.000119 ± 2.1e-05 | 0.000426 ± 9.7e-05 | 0.000264 ± 4.8e-05
24 | U57C C70G | 1.91e-05 ± 3.1e-06 |  |  |  |  |  | 
25 | A33U C50U G59U | 1.02e-05 ± 3e-06 |  |  |  |  |  | 
26 | A52G U57A | 0.000484 ± 0.00016 |  |  | 4.1e-05 ± 1.6e-05 | 6.62e-05 ± 9.6e-06 | 0.00023 ± 2.4e-05 | 0.000289 ± 8e-05
27 | A12U U57A | 0.00082 ± 0.00011 | 4040 ± 880 |  | 4.56e-05 ± 1.7e-05 | 0.000113 ± 2e-05 | 0.000287 ± 5e-05 | 0.000604 ± 8.4e-05
28 | A39U A48U | 0.000306 ± 1.3e-05 | 1710 ± 170 |  |  | 8.14e-05 ± 9.1e-06 | 0.000201 ± 2.9e-05 | 0.000257 ± 2.2e-05
29 | U47A C68G | 4.89e-05 ± 9.9e-06 |  |  |  | 4.99e-05 ± 1.2e-05 | 6.81e-05 ± 1.2e-05 | 3.56e-05 ± 9.2e-06
30 | C58U C70U | 0.000128 ± 1.9e-05 | 4650 ± 1400 |  |  |  | 4.75e-05 ± 5.9e-06 | 8.61e-05 ± 8.8e-06
31 | C11G U30C U65G U69A | 2.81e-05 ± 7.1e-06 |  |  |  |  |  | 
32 | U56G G66U | 0.000858 ± 0.00012 | 1780 ± 400 | 3.12e-05 ± 8.7e-06 | 6.25e-05 ± 7.4e-06 | 0.000237 ± 2.4e-05 | 0.000576 ± 5.7e-05 | 0.000682 ± 6.4e-05
33 | G13U A14U | 0.000743 ± 0.00015 | 2270 ± 1000 |  | 8.56e-05 ± 2.3e-05 | 0.000174 ± 3.7e-05 | 0.000331 ± 4.6e-05 | 0.00066 ± 7.3e-05
34 | A15U U69A | 7.22e-05 ± 1.3e-05 |  |  |  | 4.48e-05 ± 1.1e-05 | 8.33e-05 ± 1e-05 | 5.39e-05 ± 1.2e-05
